The target of test [1] is T1, HER2/neu on the surface of target cells (N87, JIMT-1, MCF-7, MDA-MB231) (UniProt P04626 23-1255, limits assumed).
T1 construct: whole, on cells
In words: flow cytometry on N87 cells, anti-hFc APC MFI. Background: Flow cytometry measures light scatter and fluorescence of single cells or particles in a stream.

Test [2] addresses T1, HER2/neu on the surface of target cells …. In words: flow cytometry on MCF-7 cells, anti-hFc APC MFI.
Test [3] has the same target. Briefly: flow cytometry on JIMT-1 cells, anti-hFc APC MFI.
The target of test [4] is T2, CD137 on the surface of cells (activated human T cells; engineered CHO cells) (human, UniProt Q07011 24-255).
T2 construct: whole, on cells; also called human CD137; cell surface expressed CD137
Briefly: flow cytometry on CD137-expressing CHO cells (CHO/137), anti-hFc APC MFI.

Test [5] deals with T3, extracellular portion of human CD137 fused to a histidine-containing peptide (human, UniProt Q07011 24-186).
T3 construct: extracellular domain; also called huCD137; His-tagged soluble human CD137
Briefly: SPR (BIACORE); molecule captured on anti-human Fc; huCD137 6.25-100 nM; 1:1 Langmuir. Here is the method:
(§1) The amino acid sequences of these clones were incorporated into the 5 chain diabody DART-G to yield optimized DART-G molecules (designated as DART-G1, DART-G2; DART-G3, and DART-G4). The binding affinity of DART-G2, DART-G3, and DART-G4 were evaluated via BIAcore (Table 11). For such evaluation, His-tagged soluble human CD137 (huCD137) or cynomolgus monkey CD137 (cynoCD137) (containing an extracellular portion of human or cynomolgus monkey CD137 fused to a histidine-containing peptide) was passed over a surface coated with immobilized antibody. Briefly, each test molecule was captured onto an F(ab)₂ goat-anti-human Fc-coated surface and then incubated in the presence of different concentrations (6.25-100 nM) of huCD137 or cynoCD137. The kinetics of binding were determined via BIACORE® analysis binding (normalized 1:1 Langmuir binding model).

The target in test [6] is T4, extracellular portion of cynomolgus monkey CD137 fused to a histidine-containing peptide (cynomolgus monkey, UniProt A9YYE7 24-186).
T4 construct: extracellular domain; also called cynoCD137
T4 sequence: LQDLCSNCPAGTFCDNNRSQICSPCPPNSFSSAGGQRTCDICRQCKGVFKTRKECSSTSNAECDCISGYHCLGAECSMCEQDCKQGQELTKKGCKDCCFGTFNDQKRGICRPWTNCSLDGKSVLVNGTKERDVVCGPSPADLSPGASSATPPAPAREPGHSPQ
In words: SPR (BIACORE); molecule captured on anti-human Fc; cynoCD137 6.25-100 nM; 1:1 Langmuir. Here is the method:
as §1

Test [7] has as its target T2, CD137 on the surface of cells …. In words: flow cytometry on activated pan T cells (donor D46433, CD8 PE), anti-hFc APC MFI.
Test [8] has the same target. In words: flow cytometry on activated CD8+ T cells (donor D53781, CD8 FITC), anti-hFc APC MFI.
The target of test [9] is T4, extracellular portion of cynomolgus …. In words: SPR (BIACORE); molecule captured on anti-human Fc; cynoCD137 6.25-100 nM; column head ×10^-4 applied as printed. Here is the method: as §1

Substitutions are numbered along the chain they refer to.

Broadly, the EC50 (read off the curve) is the concentration at which the effect is half-maximal. For orientation: Kd means the free concentration of one partner at which half of the binding sites on the other are occupied at equilibrium, for simple one-to-one binding. A word on the koff: it is a measure of how fast the partners let go of each other. For orientation: kon means a measure of how fast the partners come together.

T2 sequence (Q07011 24-255, change not shown): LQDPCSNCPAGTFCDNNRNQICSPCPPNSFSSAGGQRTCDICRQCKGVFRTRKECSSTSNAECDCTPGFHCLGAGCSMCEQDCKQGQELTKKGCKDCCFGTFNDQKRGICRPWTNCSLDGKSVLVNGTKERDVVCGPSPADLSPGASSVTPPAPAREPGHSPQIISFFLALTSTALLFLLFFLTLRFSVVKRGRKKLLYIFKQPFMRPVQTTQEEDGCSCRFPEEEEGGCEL

B1: DART-G3 (bispecific antibody, human IgG1, kappa, L234A L235A)
heavy: QVQLVQSGAEVKKPGASVKVSCKASGYTFTNYGMNWVRQAPGQGLEWMGWINTNIGEPTYTEEFKGRVTMTRDTSISTAYMELSRLRSDDTAVYYCARDDGYGNRVSYWGQGTLVTVSSASTKGPSVFPLAPSSKSTSGGTAALGCLVKDYFPEPVTVSWNSGALTSGVHTFPAVLQSSGLYSLSSVVTVPSSSLGTQTYICNVNHKPSNTKVDKRVEPKSCDKTHTCPPCPAPEAAGGPSVFLFPPKPKDTLMISRTPEVTCVVVDVSHEDPEVKFNWYVDGVEVHNAKTKPREEQYNSTYRVVSVLTVLHQDWLNGKEYKCKVSNKALPAPIEKTISKAKGQPREPQVYTLPPSREEMTKNQVSLSCAVKGFYPSDIAVEWESNGQPENNYKTTPPVLDSDGSFFLVSKLTVDKSRWQQGNVFSCSVMHEALHNRYTQKSLSLSPGK
light: DIQMTQSPSSLSASVGDRVTITCKASQDISNYLSWFQQKPGKAPKTLIYRANRLQSGVPSRFSGSGSGTDFTLTISSLQPEDFATYYCLQHDEFPWTFGQGTKLEIKRTVAAPSVFIFPPSDEQLKSGTASVVCLLNNFYPREAKVQWKVDNALQSGNSQESVTEQDSKDSTYSLSSTLTLSKADYEKHKVYACEVTHQGLSSPVTKSFNRGEC
chain 1: QVQLVQSGAEVKKPGASVKVSCKASGYTFTNYGMNWVRQAPGQGLEWMGWINTNIGEPTYTEEFKGRVTMTRDTSISTAYMELSRLRSDDTAVYYCARDDGYGNRVSYWGQGTLVTVSSASTKGPSVFPLAPSSKSTSGGTAALGCLVKDYFPEPVTVSWNSGALTSGVHTFPAVLQSSGLYSLSSVVTVPSSSLGTQTYICNVNHKPSNTKVDKRVEPKSCDKTHTCPPCPAPEAAGGPSVFLFPPKPKDTLMISRTPEVTCVVVDVSHEDPEVKFNWYVDGVEVHNAKTKPREEQYNSTYRVVSVLTVLHQDWLNGKEYKCKVSNKALPAPIEKTISKAKGQPREPQVYTLPPSREEMTKNQVSLWCLVKGFYPSDIAVEWESNGQPENNYKTTPPVLDSDGSFFLYSKLTVDKSRWQQGNVFSCSVMHEALHNHYTQKSLSLSPGGGGSGGGSGGGDIQMTQSPSSLSASVGDRVTITCRPSQDISNYLNWYQQKPDKTVKLLIYYTSRLRSGVPSRFSGSGSGTDFTFTISSLQPEDIATYFCQQGDTLPYTFGQGTKLEIKGGGSGGGGQVQVQLVQSGAEVKKPGASVKVSCKASGYTFTSYWINWVKQAPGQGLEWIGNIYPSDSYTNYNQKFKDKATITADKSTSTAYMELSSLRSEDTAVYYCTRDYGSAYSYSLWGQGTTVTVSSGGCGGGEVAALEKEVAALEKEVAALEKEVAALEK
chain 2: DIQMTQSPSSLSASVGDRVTITCRPSQDISNYLNWYQQKPDKTVKLLIYYTSRLRSGVPSRFSGSGSGTDFTFTISSLQPEDIATYFCQQGDTLPYTFGQGTKLEIKGGGSGGGGQVQLVQSGAEVKKPGASVKVSCKASGYTFTSYWINWVKQAPGQGLEWIGNIYPSDSYTNYNQKFKDKATITADKSTSTAYMELSSLRSEDTAVYYCTRDYGSAYSYSLWGQGTTVTVSSGGCGGGKVAALKEKVAALKEKVAALKEKVAALKE
notes: also called optimized DART-G3
For B1, the “EC50 (read off the curve)” value was approximately 0.5 nM in [1]; approximately 0.09 nM in test [2]; approximately 0.2 nM in [3]; approximately 0.02 µg/mL in test [4]; approximately 0.1 nM in test [7]; approximately 0.02 µg/mL in [8]. In addition, the results for the equilibrium dissociation constant (Kd) in test [5] and in [6] were 64 nM and 78 nM, respectively. Also, the values for the koff in [5] and in test [9] were 0.014 s⁻¹ and 0.018 s⁻¹, respectively. Moreover, the kon stood at 220000 M⁻¹ s⁻¹ in test [5] and 230000 M⁻¹ s⁻¹ in [6].

B2: DART-G2 (bispecific antibody, human IgG1, kappa, L234A L235A)
heavy: B1 heavy
light: B1 light
chain 1: B1 chain 1 with Y682M, L684T
chain 2: B1 chain 2 with Y221M, L223T
notes: also called optimized DART-G2
For B2, the “EC50 (read off the curve)” value was approximately 0.5 nM in [1]; approximately 0.09 nM in test [2]; approximately 0.2 nM in test [3]; approximately 0.02 µg/mL in test [4]; approximately 0.1 nM in [7]; approximately 0.02 µg/mL in [8]. Moreover, the Kd worked out at 60 nM in test [5] and 64 nM in test [6]. For the same molecule, the koff came to 0.021 s⁻¹ in [5] and 0.025 s⁻¹ in [9]. For the same molecule, the figures for the kon in [5] and in [6] were 350000 M⁻¹ s⁻¹ and 390000 M⁻¹ s⁻¹, respectively.

Values taken from patent US20220406376A1 (MacroGenics, published 2022).
